Test results taken from patent publication US20160052997A1.
Where “and” joins values, the source holds several entries; their conditions need not be identical. Equal entries are not always repeated. Where two headings read alike, the source gives them in different places.

How the values were obtained:
[1] = target: purified recombinant HA protein of H1N1 (A/Texas/05/09) (Influenza A virus A/Texas/05/09 (H1N1))
[2] = target: purified recombinant HA protein of H1N1 (A/Ohio/07/09) (Influenza A virus A/Ohio/07/09 (H1N1))
[3] = target: purified recombinant HA protein of H3N2 (A/Philippines/2/82) (Influenza A virus A/Philippines/2/82 (H3N2))
[4] = target: purified recombinant HA protein of H3N2 (A/Wisconsin/67/05) (Influenza A virus A/Wisconsin/67/05 (H3N2))
[5] = target: purified recombinant HA protein of H3N2 (A/Brisbane/10/07) (Influenza A virus A/Brisbane/10/07 (H3N2))
[6] = target: purified recombinant HA protein of H5N1 (A/Vietnam/1203/04) (Influenza A virus A/Vietnam/1203/04 (H5N1))
[7] = target: purified recombinant HA protein of H7N7 (A/England/268/96) (Influenza A virus A/England/268/96 (H7N7))
[8] = target: purified recombinant HA protein of H7N9 (A/Shanghai/1/2013) (Influenza A virus A/Shanghai/1/2013 (H7N9))
[9] = target: purified recombinant HA protein of H7N9 (A/Anhui/1/2013) (Influenza A virus A/Anhui/1/2013 (H7N9))
[10] = target: purified recombinant HA protein of H1N1 (A/Ohio/07/09) (Influenza A virus A/Ohio/07/09 (H1N1)); assay: SPR, Biacore T200, HA captured via anti-6x his tag antibody, 25 C
[11] = target: purified recombinant HA protein of H1N1 (A/Texas/05/09) (Influenza A virus A/Texas/05/09 (H1N1)); assay: as above
[12] = target: purified recombinant HA protein of H3N2 (A/Brisbane/10/07) (Influenza A virus A/Brisbane/10/07 (H3N2)); assay: as above
[13] = target: purified recombinant HA protein of H3N2 (A/Philippines/2/82) (Influenza A virus A/Philippines/2/82 (H3N2)); assay: as above
[14] = target: purified recombinant HA protein of H3N2 (A/Wisconsin/67/05) (Influenza A virus A/Wisconsin/67/05 (H3N2)); assay: as above
[15] = target: purified recombinant HA protein of H5N1 (A/Vietnam/1203/04) (Influenza A virus A/Vietnam/1203/04 (H5N1)); assay: as above
[16] = target: purified recombinant HA protein of H7N7 (A/England/268/96) (Influenza A virus A/England/268/96 (H7N7)); assay: as above
[17] = target: purified recombinant HA protein of H7N9 (A/Anhui/1/2013) (Influenza A virus A/Anhui/1/2013 (H7N9)); assay: as above
[18] = target: purified recombinant HA protein of H7N9 (A/Shanghai/1/2013) (Influenza A virus A/Shanghai/1/2013 (H7N9)); assay: as above
[19] = target: HA of A/Anhui/1/2013 (H7N9) virus (Influenza A virus A/Anhui/1/2013 (H7N9)); assay: cell-based or functional assay
[20] = target: HA of A/Ann Arbor/6/60 ca (H2N2) virus (Influenza A virus A/Ann Arbor/6/60 ca (H2N2)); assay: cell-based or functional assay
[21] = target: HA of A/Beijing/32/92-R-H3N2 PR8 virus (Influenza A virus A/Beijing/32/92 (H3N2)); assay: cell-based or functional assay
[22] = target: HA of A/Ohio/07/2009 (H1N1) virus (Influenza A virus A/Ohio/07/2009 (H1N1)); assay: cell-based or functional assay
[23] = target: HA of A/Ohio/83 (H1N1) virus (Influenza A virus A/Ohio/83 (H1N1)); assay: cell-based or functional assay
[24] = target: HA of A/Perth/16/09 (H3N2) virus (Influenza A virus A/Perth/16/09 (H3N2)); assay: cell-based or functional assay
[25] = target: HA of A/PuertoRico/8/34 (H1N1) virus (Influenza A virus A/PuertoRico/8/34 (H1N1)) (UniProt P03452); assay: cell-based or functional assay
[26] = target: HA of A/Shanghai/2/2013 (H7N9) virus (Influenza A virus A/Shanghai/2/2013 (H7N9)); assay: cell-based or functional assay
[27] = target: HA of A/Solomon Islands/2006 (H1N1) virus (Influenza A virus A/Solomon Islands/3/2006 (H1N1)); assay: cell-based or functional assay
[28] = target: HA of A/Sydney/5/97 (H3N2) virus (Influenza A virus A/Sydney/5/97 (H3N2)); assay: cell-based or functional assay
[29] = target: HA of A/Texas/05/2009 (H1N1) virus (Influenza A virus A/Texas/05/2009 (H1N1)); assay: cell-based or functional assay
[30] = target: HA of A/ck/HK/G9/97 (H9N2) virus (Influenza A virus A/ck/HK/G9/97 (H9N2)); assay: cell-based or functional assay
[31] = target: HA of Anhui/1/05 (H5N1) virus (Influenza A virus A/Anhui/1/05 (H5N1)); assay: cell-based or functional assay

Chain of CT149 (antibody) (VH): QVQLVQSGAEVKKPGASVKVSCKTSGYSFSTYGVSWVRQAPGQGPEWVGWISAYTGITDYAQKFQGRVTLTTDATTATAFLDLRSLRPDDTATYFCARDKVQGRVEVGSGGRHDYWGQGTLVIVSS
Chain of CT149 (antibody) (VL): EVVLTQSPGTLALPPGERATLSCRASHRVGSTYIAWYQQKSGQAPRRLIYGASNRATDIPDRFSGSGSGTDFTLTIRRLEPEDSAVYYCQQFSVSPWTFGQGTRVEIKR

CT149 (antibody)
Kd [1]: 33.8 nM
Kd [2]: 51.3 nM
Kd [3]: 0.0456 nM
Kd [4]: 88.6 nM
Kd [5]: 1.81 nM
Kd [6]: 2.94 nM
Kd [7]: 4.41 nM
Kd [8]: 0.149 nM
Kd [9]: 0.183 nM
Kd [10]: 50.9 nM and 51.7 nM
koff [10]: 0.0379 s⁻¹ and 0.0387 s⁻¹
kon [10]: 746000 M⁻¹ s⁻¹ and 747000 M⁻¹ s⁻¹
Kd [11]: 33.6 nM and 34.1 nM
koff [11]: 0.0558 s⁻¹ and 0.0562 s⁻¹
kon [11]: 1.66e+06 M⁻¹ s⁻¹ and 1.65e+06 M⁻¹ s⁻¹
Kd [12]: 1.77 nM and 1.85 nM
koff [12]: 0.000316 s⁻¹ and 0.000319 s⁻¹
kon [12]: 179000 M⁻¹ s⁻¹ and 173000 M⁻¹ s⁻¹
Kd [13]: 0.0502 nM and 0.0411 nM
koff [13]: 1.47e-05 s⁻¹ and 1.17e-05 s⁻¹
kon [13]: 292000 M⁻¹ s⁻¹ and 285000 M⁻¹ s⁻¹
Kd [14]: 86 nM and 91.3 nM
koff [14]: 0.00723 s⁻¹ and 0.00745 s⁻¹
kon [14]: 84100 M⁻¹ s⁻¹ and 81600 M⁻¹ s⁻¹
Kd [15]: 2.96 nM and 2.93 nM
koff [15]: 0.00391 s⁻¹ and 0.00386 s⁻¹
kon [15]: 1.32e+06 M⁻¹ s⁻¹
Kd [16]: 4.4 nM and 4.43 nM
koff [16]: 0.00176 s⁻¹ and 0.0018 s⁻¹
kon [16]: 401000 M⁻¹ s⁻¹ and 406000 M⁻¹ s⁻¹
Kd [17]: 0.165 nM and 0.201 nM
koff [17]: 0.00326 s⁻¹ and 0.00316 s⁻¹
kon [17]: 1.98e+07 M⁻¹ s⁻¹ and 1.57e+07 M⁻¹ s⁻¹
Kd [18]: 0.142 nM and 0.155 nM
koff [18]: 0.0028 s⁻¹ and 0.00285 s⁻¹
kon [18]: 1.97e+07 M⁻¹ s⁻¹ and 1.83e+07 M⁻¹ s⁻¹

CT-P27
EC50, microneutralization test (Contract Lab A) [19]: 2.38 µg/mL
EC50, microneutralization test [20]: 12.7 µg/mL
EC50, microneutralization test [21]: 3.1 µg/mL
EC50, microneutralization test [22]: 0.29 µg/mL
EC50, microneutralization test [23]: 0.73 µg/mL
EC50, microneutralization test [24]: 3.99 µg/mL
EC50, microneutralization test [25]: 0.67 µg/mL
EC50, microneutralization test (Contract Lab A) [26]: 3.55 µg/mL
EC50, microneutralization test (Contract Lab B) [26]: 13.1 µg/mL
EC50, microneutralization test [27]: 0.27 µg/mL
EC50, microneutralization test [28]: 6.53 µg/mL
EC50, microneutralization test [29]: 2.05 µg/mL
EC50, microneutralization test [30]: 5.09 µg/mL
EC50, microneutralization test [31]: 8.02 µg/mL
